14 molecules from US20070286859A1 (published 2007) can be followed below.

To fix the notation:
B1: S239D alemtuzumab (antibody)
chain 1: not shown
chain 2: not shown
B2: T260H alemtuzumab (antibody)
chain 1: not shown
chain 2: not shown
B3: V264I/I332E alemtuzumab (antibody)
chain 1: not shown
chain 2: not shown
B4: WT alemtuzumab (antibody)
chain 1: not shown
chain 2: not shown
B5: S298A alemtuzumab (antibody)
chain 1: not shown
chain 2: not shown
B6: S298A/E333A/K334A alemtuzumab (antibody)
chain 1: QVQLQESGPGLVRPSQTLSLTCTVSGFTFTDFYMNWVRQPPGRGLEWIGFIRDKAKGYTTEYNPSVKGRVTMLVDTSKNQFSLRLSSVTAADTAVYYCAREGHTAAPFDYWGQGSLVTVSSASTKGPSVFPLAPSSKSTSGGTAALGCLVKDYFPEPVTVSWNSGALTSGVHTFPAVLQSSGLYSLSSVVTVPSSSLGTQTYICNVNHKPSNTKVDKKVEPKSCDKTHTCPPCPAPELLGGPSVFLFPPKPKDTLMISRTPEVTCVVVDVSHEDPEVKFNWYVDGVEVHNAKTKPREEQYNATYRVVSVLTVLHQDWLNGKEYKCKVSNKALPAPIAATISKAKGQPREPQVYTLPPSRDELTKNQVSLTCLVKGFYPSDIAVEWESNGQPENNYKTTPPVLDSDGSFFLYSKLTVDKSRWQQGNVFSCSVMHEALHNHYTQKSLSLSPGK
chain 2: not shown
B7: I332E alemtuzumab (antibody)
chain 1: not shown
chain 2: not shown
B8: V264I alemtuzumab (antibody)
chain 1: not shown
chain 2: not shown
B9: E272R alemtuzumab (antibody)
chain 1: not shown
chain 2: not shown
B10: E283H alemtuzumab (antibody)
chain 1: not shown
chain 2: not shown
B11: S304T alemtuzumab (antibody)
chain 1: not shown
chain 2: not shown
B12: V284E alemtuzumab (antibody)
chain 1: not shown
chain 2: not shown
B13: N297D/A330Y/I332E alemtuzumab (antibody)
chain 1: B6 chain 1 with N301D, A302S, A334Y, I336E, A337E, A338K
chain 2: not shown
B14: S239D/N297D/I332E alemtuzumab (antibody)
chain 1: B6 chain 1 with S243D, N301D, A302S, I336E, A337E, A338K
chain 2: not shown

By IC50 is commonly meant the concentration at which inhibition is half-maximal. A higher IC50 goes with weaker potency. The Kd is a measure of binding affinity in units of concentration. Read a low Kd as tighter binding.

Residue numbers refer to the chain shown, from its start. Names may count otherwise.

The first test addresses T1, extracellular region of human V158 FcγRIIIa with C-terminal 6xHis-tag and GST-tag (human, UniProt P08637 17-208). Put plainly: AlphaScreen competition.
Turning to B1, the IC50 is 0.8 nM.

For the next test, the target named is T1, extracellular region of human V158 …. Put plainly: AlphaScreen competition, fold vs WT alemtuzumab. (In general: Alpha assays give light when donor and acceptor beads are brought close together.)
As to B2, the “Fold WT” value worked out at 1 fold.

For another test, the target named is extracellular region of human F158 FcγRIIIa with C-terminal 6xHis-tag and GST-tag (human, UniProt P08637 17-208). Put plainly: SPR, receptor on chip. (In general: In SPR one partner is held on a chip, and binding of the other changes the refractive index at the surface.)
Take B3: the Kd was found to be 52 nM. In other words, the double-digit nanomolar range.
Consider B4, for which the Kd worked out at 730 nM.
As for B5, the affinity, expressed as Kd, was 285 nM.
B6 came in with a dissociation constant Kd of 156 nM.
B7: the Kd turned out to be 72 nM.

The target of the next test is T1, extracellular region of human V158 …. Put plainly: SPR, receptor on chip.
Take B3: the Kd is 17 nM.
B4: the Kd was 68 nM.
For the molecule B5, the equilibrium dissociation constant (Kd) came out at 52 nM.
B6 displayed a Kd of 39 nM.
B7 showed a Kd of 31 nM.
B8 came in with a Kd of 64 nM.

Another test shares this target. Put plainly: SPR, fold vs WT alemtuzumab.
Regarding B9, the “Fold WT” value stood at 1.38 fold.
Same read-out and setting: next, B10: 2.31 fold.
Consider B11, for which the “Fold WT” value was 12.8 fold.
B12: the “Fold WT” value worked out at 1.51 fold.
With B2, the “Fold WT” value is 1.86 fold.

The target is the same in a further test. Description: AlphaScreen competition. The source holds these as a separate data set.
As for B13, the “affinity as a fraction of glycosylated WT alemtuzumab” value turned out to be 0.4 fold.
Turning to B14, the “affinity as a fraction of glycosylated WT alemtuzumab” value was 0.8 fold.

Another test has the same target. Description: AlphaScreen competition. The source holds these as a separate data set.
In turn, B3 showed an IC50 of 0.5 nM.
